B1: GST-Dpb11-wild-type [budding yeast] / Cdc45 (purified, radiolabelled) [budding yeast] (parent)
chain 1: MKPFQGITFCPTAINNEILAKKISKKIIKLGGIFSKDLTRQVNVLVVGSTTNTNKFKFAVKHRFDIIFIDIQAIDDIYQLWLSGENILPDSNTATMTGSTYEMLKILYRRFSFKYLHNFNIFIGRITDTNITSIDSLVRSIKKLGCSSYNYQNFVIKDTSSHNDDDDQGQNGQISIFVTDTLLGARVNAAIEQNIPIVHFKWILDCQKRSALLPYDPYYLLPNIKDLPYDSIGSNSCDCWDKINTTFPTNIDAQSSLQRQQSSSTLTPSLPKTSSLLNKFKPKGEKIWDKAMSLQQHSKTNFSVLGQSPLSINNKQEDLSDNSTLIFKNCAFIIHHIFPGNHRSILTKIVVQNGGKIETSYLSGIYDHSYYIIPSNKALDSFNDLPEIIDDNDGIVTEFFIERCLYYQKLLHPIDLWSKPFLSTIEFQVSSSSKLLHHEFSSSPFLNVTITGFSGVELLHLTKVLNLLKPMGINYVEYLNKSTDILLINLAALPSIPKTHPLWSNEFSDLFTQFCINNNNDDPGDNNRKDFQNNSILRNSMKRKIEYIKKFHSIPVVTPAFIFKLLSAASGENNEIFLNNIKWCIICPRGHKDDFKCKIKKPYYTSISSEKKYQNNDPKIDKTILLKRNNSSLSEHSMKDTKNELLQKIRETDSGRKKRSVSSSIMDVSSERQMPDTKRIKLESLPKNFVPKQIKRTTSWGTIMSENVPTEQPTAISNPEEIPRTEEVSHTQVTYGSIQDKKRTASLEKPMRRQTRNQTKELDS
chain 2: MYYGISQFSEAYNKILRNSSSHSSCQLVIFVSCLNIDALCATKMLSLLFKKQLVQSQIVPIFGYSELRRHYSQLDDNINSLLLVGFGGVIDLEAFLEIDPQEYVIDTDEKSGEQSFRRDIYVLDAHRPWNLDNIFGSQIIQCFDDGTVDDTLGEQKEAYYKLLELDEESGDDELSGDENDNNGGDDEATDADEVTDEDEEDEDETISNKRGNSSIGPNDLSKRKQRKKQIHEYEGVLEEYYSQGTTVVNSISAQIYSLLSAIGETNLSNLWLNILGTTSLDIAYAQVYNRLYPLLQDEVKRLTPSSRNSVKTPDTLTLNIQPDYYLFLLRHSSLYDSFYYSNYVNAKLSLWNENGKKRLHKMFARMGIPLSTAQETWLYMDHSIKRELGIIFDKNLDRYGLQDIIRDGFVRTLGYRGSISASEFVEALTALLEVGNSTDKDSVKINNDNNDDTDGEEEEDNSAQKLTNLRKRWVSNFWLSWDALDDRKVELLNRGIQLAQDLQRAIFNTGVAILEKKLIKHLRIYRLCVLQDGPDLDLYRNPLTLLRLGNWLIECCAESEDKQLLPMVLASIDENTDTYLVAGLTPRYPRGLDTIHTKKPILNNFSMAFQQITAETDAKVRIDNFESSIIEIRREDLSPFLEKLTLSGLL
B2: GST-Dpb11-wild-type [budding yeast] / PKA-Sld2T84D [modified: 32P-phosphate on the artificial PKA site; 32P-phosphate on the artificial PKA site] [budding yeast] (parent)
chain 1: B1 chain 1
chain 2: MYSFELDKLKIELKTWEHDFIDKNKREPTRDDIKSLRTVRQMYKQYSTLKKKQSLQRQKVDTQESVELPAHKKDHDEVVEIGPDPQVYGKAISIFDMNLSPIKPIYMTFTNNIDVNNDNSKTISNESSPRKTILLKSSPADRTLVAEPISSVKRQLNFQMLNASSTRTPTSSPCKNRNGKLVEIKKCSPTINPPLESGKPSGYYGPNSPLKLDEENIHLNISLNSSTKRRLQIAYPSLQKTPSKDQADISTSFSPSPLIRRPLTKSLIELAREHTEIVKEFGVLQEEDIEEEEEGEEGENGYDEKNHEDDFGLEDELIRPKVVKDIFQEDDDNDDSQAREDTFIRKRPKRRKVIRRLRDNDPETETAGFERDVHKELVKLKRRKVAEFLGSTSQISDTEFEHDPEASSGVVSSEQKPTAKRKGRKKYNLVSNNFRRLKLPKKNRFSNGRWGRR

Assays:
[1] = variants of: B1; test: GST pull-down, phosphorimaging; settings: with Cdc45 (purified, radiolabelled) [budding yeast], 10 pmoles GST-Dpb11, read off a plot
[2] = variants of: B2; test: GST pull-down, phosphorimaging; settings: with PKA-Sld2T84D [modified: 32P-phosphate on the artificial PKA site

Row | Variant | response ([1]; 1 pmole Cdc45 input, parent: 0.11) [pmol] | response ([1]; 3 pmoles Cdc45 input, parent: 0.44) [pmol] | response ([1]; 10 pmoles Cdc45 input, parent: 0.89) [pmol] | response ([2]; 10 pmoles GST-Dpb11, 1 pmole Sld2T84D input, parent: 0.28, read off a plot) [pmol] | response ([2]; 10 pmoles GST-Dpb11, 3 pmoles Sld2T84D input, parent: 0.64, read off a plot) [pmol] | response ([2]; 10 pmoles GST-Dpb11, 10 pmoles Sld2T84D input, parent: 1.6, read off a plot) [pmol]
1 | chain 1 K463E K469E R538E K549E | 0.1 | 0.42 | 0.85 | – | – | –
2 | chain 1 K463E K469E R538E K549E | – | – | – | 0.3 | 0.72 | 1.7

From publication PMC5415106
